B1: TCN-556 (5089_K12) (antibody, V domains shown)
VH: QVQLVQSGAEVKKPGASVKVSCKASGYTFIGYDMHWVRQAPGQGLEWMGWINAKRGGTNYAQKFQGRVTMTRDTSISTAYMELNSLRSDDTAVYYCARGVGSRTTIFGVLNPEFDYWGQGTLVTVSS
VL: QSALTQPPSASGSPGQSVTISCTGSSSDVGGYDYVSWYQQHPGKAPKLLIYEVTKRPSGVPDRFSGSKSGNTASLTVSGLQAEDEADYYCSSYAGNYNHVFGPGTKVTVL
B2: TCN-560 (5084_P10) (antibody, V domains shown)
VH: EVQLVESGGGLVQPGGSLRLSCAASGFIFRNYWMSWVRQAPGKGLEWVANIKQDGREKYYVDSLRGRVNISRDNAENSLYLHMNSLRVEDTAVYFCARARMVVVTGDGFDVWGHGTMVTVSS
VL: DIQMTQSPSSLSASVGDRVTITCRASQNIKRYFNWYQQKPGKAPKLLIYAASNLENGVPSRFSGSGSGTDFTLTISSLQPEDFATYYCQQSFSKSWTFGQGTNVDIK

Target: recombinant soluble homotrimeric HA, A/common magpie/Hong Kong/5052/07 (H5N1) (influenza A virus A/common magpie/Hong …)
Assay: microarray, trimeric HA, transfection supernatant

| Binder | Trimeric HA Binding RLU [RLU] |
| --- | --- |
| B1 | 20100 |
| B2 | 30500 |

Source: US20150104459A1 (published 2015)
